Measured values reported in patent US11896644B2, “Inhibition of beta-arrestin oligomerization in tauopathy” (UNIVERSITY OF SOUTH FLORIDA, priority 2020, dated 2024).

Key:
[1] = test system: tau in Hela-V5-tau cells; assay: Tau immunocytochemistry in Hela-V5-tau cells expressing YFP-β-arrestin2 mutants; format: cell-based
Excerpt: FIGS. 11A to 11E show β-arrestin2 oligomerization mutants reduce tau aggregates. FIG. 11A contains representative confocal images of total tau in Hela-V5-tau cells transfected with YFP, YFP-β-arrestin2 ΔIP6C, or YFP-β-arrestin2 ΔIP6N (Scale bar=10 μm). FIG. 11B contains representative confocal images of proximity ligation assay (PLA) in Hela-V5-tau cells transfected with β-arrestin2-flag and β-arrestin2-myc with YFP control, YFP-β-arrestin2 ΔIP6C, or YFP-β-arrestin2 ΔIP6N.
Cells were fixed with 4% paraformaldehyde for 15 min at room temperature and washed with 0.2% triton in TBS and blocked using 3% BSA with 0.1% triton x-100 for 1 hr, incubated with primary antibodies for overnight at 4° C. and fluorescently labeled secondary antibodies for 45 min at room temperature. For immunohistochemistry, mice were perfused with PBS and fixed with 4% paraformaldehyde. […] Images were captured with the Olympus FV10i confocal microscope (Tokyo, Japan), and the immunoreactivities were quantified using the Image J software (National Institutes of Health, Bethesda, MD). Immunoreactivities were quantitated from every 12th serial section through an entire hippocampus. […] Regions of interest were chosen randomly, and investigators were blinded to experimental conditions during image acquisition and quantification. […]

[2] = test system: tau turnover in Hela-V5-tau cells; assay: Cycloheximide chase of tau turnover in Hela-V5-tau cells; format: cell-based; conditions: cycloheximide 100 μg/ml
Excerpt: FIGS. 4A to 4E show β-arrestin2 oligomerization is required for suppressing tau turnover. […] Data are shown as box plots or mean±SEM.
When DIV 18 tau P301S cortical primary neurons were transduced with either β-arrestin2 ΔIP6C or ΔIP6N lentivirus, an approximately 50% reduction in tau compared to control was evident (FIGS. 4A,4B), which represents a key finding relevant to both mechanism of action and potential therapeutic strategies. […] Also investigated was whether β-arrestin2 oligomerization is required for slowing tau turnover by disrupting oligomerization using these mutants in several models. […] To determine whether β-arrestin2 oligomerization status alters tau aggregation itself, filter-trap assays were performed from Hela-V5-tau cells transfected with β-arrestin2 variants, in which tau aggregates from detergent-soluble and-insoluble lysates were captured by cellulose acetate membranes and assessed by immunoblotting.

[3] = molecular target: T1, HA-p62/GFP-p62 complex (Homo sapiens, UniProt Q13501); assay: PLA of HA-p62/GFP-p62 complex (p62 self-interaction); format: cell-based; conditions: Hela-V5-tau cells
T1 construct: #38277; host or cells: Hela-V5-tau cells
Method: Data are shown as box plots or mean±SEM.
Given the effects on p62 autophagy flux, whether β-arrestin2 physically interacts with p62 was tested. […] Given that β-arrestin2 oligomeric mutants, ΔIP6C and ΔIP6N, reduced tau aggregates by slowing tau turnover, next tested was whether β-arrestin2 ΔIP6C and ΔIP6N mutants affect p62 self-association by a proximity ligation assays (PLA) as well as co-IP. […] Recent studies have shown that purified recombinant p62 spontaneously forms globular oligomers (Zaffagnini G, et al. (2018) EMBO J 37(5)). To test whether β-arrestin2 can directly affect p62 oligomerization in vitro, purified recombinant p62, β-arrestin2, and p62 mixed with β-arrestin2 with atomic force microscopy were visualized. Recombinant p62 spontaneously formed visible globular particles between 5-100 nm in diameter (FIG. 5K), whereas only very few small β-arrestin2 particles were visible under identical conditions (FIG. 5K). […] Next tested was whether β-arrestin2 oligomerization is required for bafilomycin A-induced p62 puncta formation. As expected, GFP-p62 puncta were increased upon bafilomycin A treatment in control vector transfected cells (FIGS. 5M,5N).

[4] = test system: tauopathy in tau P301S mice; assay: rAAV9 stereotaxic injection into hippocampus of 5-month old tau P301S mice; format: in vivo
Method: Cells were fixed with 4% paraformaldehyde for 15 min at room temperature and washed with 0.2% triton in TBS and blocked using 3% BSA with 0.1% triton x-100 for 1 hr, incubated with primary antibodies for overnight at 4° C. and fluorescently labeled secondary antibodies for 45 min at room temperature. For immunohistochemistry, mice were perfused with PBS and fixed with 4% paraformaldehyde. 25-micron sections were blocked using normal goat serum for 1 h and incubated with primary antibodies at 4° C. overnight, followed by secondary antibody incubation for 1 h at room temperature prior to mounting. Images were captured with the Olympus FV10i confocal microscope (Tokyo, Japan), and the immunoreactivities were quantified using the Image J software (National Institutes of Health, Bethesda, MD). Immunoreactivities were quantitated from every 12th serial section through an entire hippocampus. In ICC and IHC experiments, all comparison images were acquired with identical laser intensity, exposure time, and filter. Adjustments to the brightness/contrast were applied equally to all comparison images. Regions of interest were chosen randomly, and investigators were blinded to experimental conditions during image acquisition and quantification.
Brain homogenates and cultured cells were lysed with RIPA buffer (50 mM Tris pH 7.4, 150 mM NaCl, 2 mM ethlenediaminetetraacetic acid, 1% NP-40, 0.1% sodium dodecyl sulfate) plus protease and phosphatase inhibitors. Proteins were extracted and centrifuged at 15000 rpm for 15 min at 4° C., and RIPA insoluble fractions were lysed with 5% SDS with 1% β-mercaptoethanol, 50 mM Tris-HCl pH 6.8, 12.5 mM EDTA, 10% glycerol, and 0.02% bromophenol blue. Supernatants were used for western blot analysis. supernatants were used for western blot analysis. co-IP experiments were carried out from NP40 lysates or indicated buffers with preclearing with IgG beads followed by IP with IgG beads alone or IgG beads+indicated antibodies, extensive washing (5×) with the original buffer, and Western blotting on SDS-PAGE. […]

[5] = test system: p62 autophagy flux; conditions: primary neurons, rAAV9 mCherry-EGFP-p62
Excerpt: To directly test this hypothesis, the mCherry-EGFP-p62 autophagy flux reporter was used. This reporter takes advantage of the sensitivity of GFP to low pH (which quenches the signal) and the insensitivity of mCherry to low pH. Therefore, colocalized red and green puncta are indicative of non-lysosomal p62 at steady-state.

[6] = test system: activated GPCRs; conditions: cited from earlier work

B1: β-arrestin2 ΔIP6N: β-arrestin2 N-terminal domain mutant (K158A, K161A, and R162A), incapable of forming oligomers; dominant negative (protein, UniProt P32121 1-409, looked up, variant K158A K161A R162A)
Beta-arrestin-2: MGEKPGTRVFKKSSPNCKLTVYLGKRDFVDHLDKVDPVDGVVLVDPDYLKDRKVFVTLTCAFRYGREDLDVLGLSFRKDLFIATYQAFPPVPNPPRPPTRLQDRLLRKLGQHAHPFFFTIPQNLPCSVTLQPGPEDTGKACGVDFEIRAFCAKSLEEASHAANSVRLVIRKVQFAPEKPGPQPSAETTRHFLMSDRSLHLEASLDKELYYHGEPLNVNVHVTNNSTKTVKKIKVSVRQYADICLFSTAQYKCPVAQLEQDDQVSPSSTFCKVYTITPLLSDNREKRGLALDGKLKHEDTNLASSTIVKEGANKEVLGILVSYRVKVKLVVSRGGDVSVELPFVLMHPKPHDHIPLPRPQSAAPETDVPVDTNLIEFDTNYATDDDIVFEDFARLRLKGMKDDDYDDQLC
modifications: GFP or YFP tag
notes: dominant negative
tau by immunocytochemistry [1]: significant reductions | tau turnover in cycloheximide chase [2]: enhancement of tau turnover | HA-p62/GFP-p62 PLA puncta (p62 self-interaction) [3]: neither β-arrestin2 ΔIP6C nor β-arrestin2 ΔIP6N reduced HA-p62/GFP-p62 PLA puncta | tau levels in individual brain cells with verified expression ([4]; cells verified by GFP tags): essentially undetectable | HT7-immunoreactive tau ([4]; expressing neurons vs GFP-expressing control or non-infected neurons): significant reductions | sarkosyl-insoluble tau ([4]; tau P301S mice, two months post injection, vs GFP control): markedly reduced | ratio of mCherry only to total puncta [5]: significantly increased | binding to activated GPCRs [6]: bind to activated GPCRs with WT affinity
